Reference: patent US20120316071A1 (published 2012)

Key:
[1] = target: T1, rHuman ErbB2/Fc Chimera, CF (R&D Systems Cat#1129-ER) (human, UniProt P04626 23-652); assay: MSD multispot ECL, antigen spotted on plate, Fab in solution; blank spot of this row 254
T1 construct: Bought recombinant protein; Fc part of the bought chimera not given

[2] = target: T2, rHuman IGF-1 sR (insulin-like growth factor-1 soluble receptor), CF (R&D Systems Cat#391-GR) (human, UniProt P08069 31-932); assay: as above
T2 construct: Bought recombinant soluble receptor; The column head prints only 'IGF-1'

[3] = target: T3, Recombinant Human DLL4 (R&D Systems Cat#1506-D4/CF) (human, UniProt Q9NR61 27-524); assay: as above
T3 construct: Bought recombinant protein; also called delta-like protein 4; rHuman DLL4

[4] = target: T4, rHuman HGF R/c-MET/Fc Chimera, CF (R&D Systems Cat#358-MT/CF) (human, UniProt P08581 25-932); assay: as above
T4 construct: Bought recombinant protein; also called HGF R/Fc; Fc part of the bought chimera not given

[5] = target: T5, rHuman EGF R/Fc Chimera, CF (R&D Systems Cat#344-ER) (human, UniProt P00533 25-645); assay: as above
T5 construct: Bought recombinant protein; Fc part of the bought chimera not given

[6] = target: T6, rHuman P-Cadherin/Fc Chimera, CF (R&D Systems Cat#861-PC) (human, UniProt P22223 108-654); assay: as above
T6 construct: Bought recombinant protein; Fc part of the bought chimera not given

[7] = target: T1, rHuman ErbB2/Fc Chimera, CF (R&D …); assay: MSD multispot ECL, antigen spotted on plate, Fab in solution; blank spot of this row 407
[8] = target: T2, rHuman IGF-1 sR (insulin-like growth …); assay: as above
[9] = target: T3, Recombinant Human DLL4 (R&D Systems …); assay: as above
[10] = target: T4, rHuman HGF R/c-MET/Fc Chimera, CF (R&D …); assay: as above
[11] = target: T5, rHuman EGF R/Fc Chimera, CF (R&D …); assay: as above
[12] = target: T6, rHuman P-Cadherin/Fc Chimera, CF (R&D …); assay: as above
[13] = target: T1, rHuman ErbB2/Fc Chimera, CF (R&D …); assay: MSD multispot ECL, antigen spotted on plate, Fab in solution; blank spot of this row 338
[14] = target: T2, rHuman IGF-1 sR (insulin-like growth …); assay: as above
[15] = target: T3, Recombinant Human DLL4 (R&D Systems …); assay: as above
[16] = target: T4, rHuman HGF R/c-MET/Fc Chimera, CF (R&D …); assay: as above
[17] = target: T5, rHuman EGF R/Fc Chimera, CF (R&D …); assay: as above
[18] = target: T6, rHuman P-Cadherin/Fc Chimera, CF (R&D …); assay: as above
[19] = target: T1, rHuman ErbB2/Fc Chimera, CF (R&D …); assay: MSD multispot ECL, antigen spotted on plate, Fab in solution; blank spot of this row 184
[20] = target: T2, rHuman IGF-1 sR (insulin-like growth …); assay: as above
[21] = target: T3, Recombinant Human DLL4 (R&D Systems …); assay: as above
[22] = target: T4, rHuman HGF R/c-MET/Fc Chimera, CF (R&D …); assay: as above
[23] = target: T5, rHuman EGF R/Fc Chimera, CF (R&D …); assay: as above
[24] = target: T6, rHuman P-Cadherin/Fc Chimera, CF (R&D …); assay: as above
[25] = target: T7, Recombinant Human DLL4 (delta-like protein 4) (human, UniProt Q9NR61 27-524); assay: SPR, Fab on recombinant human DLL4; two-site binding, this site 89% by the footnote
T7 construct: Bought recombinant human DLL4 (R&D Systems Cat#1506-D4/CF); also called rHuman DLL4; Delta-like ligand 4

[26] = target: T7, Recombinant Human DLL4 (delta-like …); assay: SPR, Fab on recombinant human DLL4
[27] = target: T7, Recombinant Human DLL4 (delta-like …); assay: SPR, Fab on recombinant human DLL4; two-site binding, this site 10% by the footnote
[28] = target: T8, rHuman EGF R/Fc Chimera, CF (R&D Systems Cat#344-ER) (human, UniProt P00533 25-645); assay: MSD Multispot ECL, antigen spotted on plate, Fab in solution; blank spot of the row 373
T8 construct: Bought recombinant Fc chimera; also called epidermal growth factor receptor; Fc part of the bought chimera not given

[29] = target: T9, rHuman CD44/Fc Chimera, CF (R&D Systems Cat#3660-CD) (human, UniProt P16070 21-220); assay: as above
T9 construct: Bought recombinant Fc chimera; Fc part of the bought chimera not given

[30] = target: T10, rHuman HGF R/c-MET/Fc Chimera, CF (R&D Systems Cat#358-MT/CF) (human, UniProt P08581 25-932); assay: as above
T10 construct: Bought recombinant Fc chimera; also called HGF R/Fc; hepatocyte growth factor receptor; Fc part of the bought chimera not given

[31] = target: T11, rHuman Notch-1/Fc Chimera, CF (R&D Systems Cat#3647-TK) (human, UniProt P46531 19-526); assay: as above
T11 construct: Bought recombinant Fc chimera; Fc part of the bought chimera not given

[32] = target: T12, Recombinant Human DLL4 (R&D Systems Cat#1506-D4/CF) (human, UniProt Q9NR61 27-524); assay: as above
T12 construct: Bought recombinant protein; also called delta-like protein 4; Delta-like 4

[33] = target: T13, rHuman Erythropoietin R/Fc Chimera, CF (R&D Systems Cat#963-ER) (human, UniProt P19235 25-250); assay: as above
T13 construct: Bought recombinant Fc chimera; also called EPO R; EPO R/Fc; Fc part of the bought chimera not given
T13 sequence (looked up): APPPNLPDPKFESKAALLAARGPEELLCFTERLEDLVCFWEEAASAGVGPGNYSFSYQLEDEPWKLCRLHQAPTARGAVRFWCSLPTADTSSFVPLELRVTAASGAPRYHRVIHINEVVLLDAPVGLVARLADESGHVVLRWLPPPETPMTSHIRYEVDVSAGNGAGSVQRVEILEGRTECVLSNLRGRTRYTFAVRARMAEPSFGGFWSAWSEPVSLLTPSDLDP

[34] = target: T14, rHuman P-Cadherin/Fc Chimera, CF (R&D Systems Cat#861-PC) (human, UniProt P22223 108-654); assay: as above
T14 construct: Bought recombinant Fc chimera; Fc part of the bought chimera not given

B1: Fab VH1-46_IGHD6-6*01_IGHJ1*01 S102A/S103P/S104F/H111F (H:APFF) & L6_IGKJ1*01 (Fab, V domains shown)
VH: QVQLVQSGAEVKKPGASVKVSCKASGYTFTSYYMHWVRQAPGQGLEWMGIINPSGGSTSYAQKFQGRVTMTRDTSTSTVYMELSSLRSEDTAVYYCAREEYAPFSAEYFQFWGQGTLVTVSS
VL: not shown
notes: Fab expressed in E. coli from plasmid A (CH1, His6 and Flag tags) and plasmid C (kappa CL); also called wildtype (light chain); H:APFF & L:wt
Which results are given for B1?
ECL signal [1]: 351; ECL signal [2]: 306; ECL signal [3]: 148000; ECL signal [4]: 176; ECL signal [5]: 209; ECL signal [6]: 138; ECL signal [7]: 292; ECL signal [8]: 357; ECL signal [9]: 126000; ECL signal [10]: 237; ECL signal [11]: 329; ECL signal [12]: 277; ECL signal [13]: 379; ECL signal [14]: 468; ECL signal [15]: 149000; ECL signal [16]: 332; ECL signal [17]: 425; ECL signal [18]: 399; ECL signal [19]: 322; ECL signal [20]: 173; ECL signal [21]: 132000; ECL signal [22]: 263; ECL signal [23]: 409; ECL signal [24]: 240

B2: Fab VH1-46_IGHD6-6*01_IGHJ1*01 S102A/S103P/S104F/H111F (APFF) & L6_IGKJ1*01 S28N/S30D/S31H (NDH) (Fab, V domains shown)
VH: QVQLVQSGAEVKKPGASVKVSCKASGYTFTSYYMHWVRQAPGQGLEWMGIINPSGGSTSYAQKFQGRVTMTRDTSTSTVYMELSSLRSEDTAVYYCAREEYAPFSAEYFQFWGQGTLVTVSS
VL: EIVLTQSPATLSLSPGERATLSCRASQNVDHYLAWYQQKPGQAPRLLIYDASNRATGIPARFSGSGSGTDFTLTISSLEPEDFAVYYCQQRSNWPPWTFGQGTKVEIKR
notes: Fab with CH1 (Plasmid A, His6 and Flag tags) and kappa CL (Plasmid C); Some paragraphs print S28D/S30N/S31H for the same NDH chain; also called H:APFF & L:NDH; APFF-NDH
For B2, which Kd [25] is on record?
Its Kd is 155 nM.

And the koff [26]?
The koff was 0.0689 s⁻¹.

And the kon [26]?
The kon was 444000 M⁻¹ s⁻¹.

And the Kd [27]?
The Kd was 14 nM.

B3: Fab VH5-51_IGHD5-18*01>3_IGHJ4*01 G100K/G104T G24A & V3-4_IGLJ1*01 (Fab, V domains shown)
VH: EVQLVQSGAEVKKPGESLKISCKASGYSFTSYWIGWVRQMPGKGLEWMGIIYPGDSDTRYSPSFQGQVTISADKSISTAYLQWSSLKASDTAMYYCARRKYSYTYDYFDYWGQGTLVTVSS
VL: QTVVTQEPSFSVSPGGTVTLTCGLSSGSVSTSYYPSWYQQTPGQAPRTLIYSTNTRSSGVPDRFSGSILGNKAALTITGAQADDESDYYCVLYMGSGISYVFGTGTKVTVL
notes: Fab made in E. coli; VH cloned into Plasmid A (CH1, His6 and Flag tags), lambda VL into Plasmid E (lambda CL); also called KT G24A
What does the source list for B3?
ECL signal [28]: 757; ECL signal [29]: 547; ECL signal [30]: 803; ECL signal [31]: 493; ECL signal [32]: 45500; ECL signal [33]: 551; ECL signal [34]: 212
